Series [1] has as its target T1, hG3BP1 (human, UniProt Q13283 1-466). Nature of the series: EMSA.
Series [2] has as its target T1, hG3BP1. The series can be described thus: EMSA. This is another data set of the same source. Background: In EMSA bound probe runs differently from free probe, usually more slowly.

Like-named read-outs stand apart in the source and are kept apart here.

T1 sequence (Q13283 whole entry): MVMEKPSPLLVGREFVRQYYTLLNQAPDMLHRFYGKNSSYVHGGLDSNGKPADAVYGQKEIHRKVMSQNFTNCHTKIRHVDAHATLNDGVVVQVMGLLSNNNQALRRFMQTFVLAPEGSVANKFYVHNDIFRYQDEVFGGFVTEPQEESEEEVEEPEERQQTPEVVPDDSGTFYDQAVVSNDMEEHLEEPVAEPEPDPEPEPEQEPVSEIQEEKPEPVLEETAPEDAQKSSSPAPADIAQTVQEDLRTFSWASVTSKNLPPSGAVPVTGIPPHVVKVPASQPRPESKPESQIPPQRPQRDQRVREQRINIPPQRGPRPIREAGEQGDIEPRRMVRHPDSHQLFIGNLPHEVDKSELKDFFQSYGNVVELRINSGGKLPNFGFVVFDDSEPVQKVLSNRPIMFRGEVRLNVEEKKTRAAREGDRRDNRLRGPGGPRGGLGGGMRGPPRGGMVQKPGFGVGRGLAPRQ

As for AGGGGGCCGUGGGGUGGGAGCUGGGG (structured_RNA) [BCL2 rG4 (rBCL2)], the binding result in series [1] is “binds”.
GUGUGGGAGGGGCGGGUCUGGGUGCG (structured_RNA) [NRAS rG4 (rNRAS)]: in series [1], the binding result is “binds”.
For the molecule AGGAGGAGGAGGAGG (structured_RNA) [r(AGG)5 rG4], the binding result in series [2] is reported as “binds”.
GGGUUAGGGUUAGGGUUAGGG (structured_RNA) [rOG0 rG4]: in series [1], the binding result is reported as “binds”.

Source of the values: PMC9723610.
